The results in this text go back to US20150274820A1 (ESBATECH AN ALCON BIOMEDICAL RESEARCH UNIT, published 2015).

The target in assay [1] is T1, recombinant human VEGF165 (human, UniProt P15692 27-191).
T1 construct: mature; Isoform VEGF165 of the entry; also called hVEGF165; hVEGF
Put plainly: Biacore SPR, VEGF immobilized, pH 5. Here is the method:
(§1) In this example, the Biacore-binding ability of scFvs was tested and the binding affinity was measured using the exemplary surface plasmon resonance method with BIAcore™-T100. The VEGF proteins, tested for binding by these scFv candidates, in this example and later examples include purified Escherichia coli-expressed recombinant human VEGF₁₆₅ (PeproTech EC Ltd.), recombinant human VEGF₁₂₁ (PeproTech EC Ltd.), recombinant human VEGF₁₁₀ (ESBATech AG), recombinant murine VEGF₁₆₄ (PeproTech EC Ltd.), recombinant rat VEGF₁₆₄ (Biovision), recombinant rabbit VEGF₁₁₀ (ESBATech AG), and recombinant human PLGF (PeproTech EC Ltd.). For the surface plasmon resonance experiment, carboxymethylated dextran biosensor chips (CM4, GE Healthcare) were activated with N-ethyl-N′-(3-dimethylaminopropyl) carbodiimide hydrochloride and N-hydroxysuccinimide according to the supplier's instructions. Each of the 6 different VEGF forms, as exemplified above, was coupled to 1 of the 4 different flow cells on a CM4 sensor chip using a standard amine-coupling procedure. […] The 4th flow cell of each chip was treated similarly except no proteins were immobilized prior to blocking, and the flow cell was used as in-line reference. […] Dissociation of the anti-VEGF scFv from the VEGF on the CM4 chip was allowed to proceed for 10 min at 25° C. Sensorgrams were generated for each anti-VEGF scFv sample after in-line reference cell correction followed by buffer sample subtraction. The apparent dissociation rate constant (kd), the apparent association rate constant (kₐ) and the apparent dissociation equilibrium constant (KD) were calculated using one-to-one Langmuir binding model with BIAcore T100 evaluation Software version 1.1.

For assay [2], the target named is T1, recombinant human VEGF165. Put plainly: Biacore SPR, VEGF immobilized, pH 7.4. How it is done: as §1
For orientation: In SPR one partner is held on a chip, and binding of the other changes the refractive index at the surface.

Assay [3] addresses T1, recombinant human VEGF165. Put plainly: Biacore SPR, VEGF immobilized, pH 5. How it is done:
as §1, with “1.1. […]” for “1.1.”
This is another data set of the same source.

Positions count from the first letter of the chain named. In names and notes the source's numbering stands.

T1 sequence (P15692 other isoform, or with tags, fused parts or gaps): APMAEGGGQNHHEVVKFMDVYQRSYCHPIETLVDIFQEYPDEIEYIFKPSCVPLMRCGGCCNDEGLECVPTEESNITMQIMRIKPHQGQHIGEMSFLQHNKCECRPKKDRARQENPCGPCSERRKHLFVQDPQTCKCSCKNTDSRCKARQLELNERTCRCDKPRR

B1: 610-min (scFv)
scFv: EIVMTQSPSTLSASVGDRVIITCQASQSISSWLSWYQQKPGKAPKLLIYQASTLASGVPSRFSGSGSGAEFTLTISSLQPDDFATYYCQNNYGFRSYGGAFGQGTKLTVLGGGGGSGGGGSGGGGSGGGGSEVQLVESGGGLVQPGGSLRLSCAASGIDFSGAYYMGWVRQAPGKGLEWVSYIDYDGDRYYASWAKGRFTISRDNSKNTLYLQMNSLRAEDTAVYYCAKSDYSSGWGTDIWGQGTLVTVSS
notes: VL and VH tied by name; also called Protein Nr
As for B1, in assay [1], the koff – broadly, a measure of how fast the partners let go of each other – came out at 0.00265 s⁻¹ and the association rate constant (kon) (in general, the rate constant with which the complex forms) turned out to be 251000 M⁻¹ s⁻¹.

B2: 610-max (scFv)
scFv: B1 scFv with A69T, A154T, S181G, R203K, N205T, L210V, K229R
notes: as for B1
Consider B2, for which the koff in assay [1] is 0.000601 s⁻¹. The figures for the kon in assay [1] and in assay [2] were 509000 M⁻¹ s⁻¹ and > 1e+08 M⁻¹ s⁻¹, respectively.

B3: 534-min C-His (scFv)
scFv: EIVMTQSPSTLSASVGDRVIITCQASQSINIWLSWYQQKPGKAPKLLIYKESTLASGVPSRFSGSGSGAEFTLTISSLQPDDFATYYCQNNYDSGNNGFPFGQGTKLTVLGGGGGSGGGGSGGGGSGGGGSEVQLVESGGGLVQPGGSLRLSCAASGFSLSYYYMSWVRQAPGKGLEWVSIIGPGDYTDYASWAKGRFTISRDNSKNTLYLQMNSLRAEDTAVYYCAKGDDNSGWGEDIWGQGTLVTVSS
notes: VL and VH tied by name; His tag only named (C-His); also called Protein Nr; 807; not shown: C-terminal His tag
Turning to B3, in assay [1], the off-rate constant (koff) is 0.00921 s⁻¹ and the on-rate (kon) was 271000 M⁻¹ s⁻¹.

B4: 578-max FW1.4_DHP (scFv)
scFv: EIVMTQSPSTLSASVGDRVIITCQASEIIHSWLAWYQQKPGKAPKLLIYLASTLASGVPSRFSGSGSGTQFTLTISSLQPDDFATYYCQNVYLASTNGANFGQGTKLTVLGGGGGSGGGGSGGGGSGGGGSEVQLVESGGGSVQPGGSLRLSCTASGFSLTDYYYMTWVRQAPGKGLEWVGFIDPDDDPYYATWAKGRFTISRDTSKNTVYLQMNSLRAEDTATYYCAGGDHNSGWGLDIWGQGTTVTVSS
notes: Tied by name only; also called Protein Nr; 960
B4: in assay [3], the dissociation constant Kd (in general, the free concentration of one partner at which half of the binding sites on the other are occupied at equilibrium, for simple one-to-one binding) was 0.266 nM; the koff turned out to be 0.000248 s⁻¹; the kon worked out at 930000 M⁻¹ s⁻¹.

B5: 578min_max T84N_V89A (scFv)
scFv: B4 scFv with T69A, Q70E, S142L, T205N, V210A, T224V, T246L
notes: the VH entry already carries the changes; tied by name; also called Protein Nr; 1009
Consider B5, for which, in assay [3], the equilibrium dissociation constant (Kd) amounted to 0.615 nM, the koff amounted to 0.000493 s⁻¹ and the on-rate constant (kon) worked out at 801000 M⁻¹ s⁻¹.

B6: 578-max-min (scFv)
scFv: B4 scFv with S142L, T154A, G181S, T205N, V210L, T224V, G229K, T246L
notes: also called Protein Nr; 902
With B6, in assay [3], the Kd was 6.55 nM, the dissociation rate constant (koff) worked out at 0.00883 s⁻¹ and the kon was 1.35e+06 M⁻¹ s⁻¹.

B7: 578min_max V89A (scFv)
scFv: B4 scFv with T69A, Q70E, S142L, V210A, T224V, T246L
notes: the VH entry already carries V89A; tied by name; also called Protein Nr; 978
Consider B7, for which, in assay [3], the Kd stood at 1.2 nM, the off-rate constant (koff) worked out at 0.000612 s⁻¹ and the kon was 509000 M⁻¹ s⁻¹.

B8: 578min_max V89L (scFv)
scFv: B4 scFv with T69A, Q70E, S142L, V210L, T224V, T246L
notes: the VH entry already carries V89L; tied by name; also called Protein Nr; 980
Turning to B8, in assay [3], the equilibrium dissociation constant (Kd) came to 2.13 nM, the koff stood at 0.00187 s⁻¹ and the kon is 875000 M⁻¹ s⁻¹.

B9: 578min_max T84N (scFv)
scFv: B4 scFv with T69A, Q70E, S142L, T205N, T224V, T246L
notes: the VH entry already carries T84N; tied by name; also called Protein Nr
As for B9, in assay [3], the dissociation constant Kd was found to be 0.971 nM, the koff came out at 0.0007 s⁻¹ and the kon worked out at 721000 M⁻¹ s⁻¹.

B10: 375-min (scFv)
scFv: EIVMTQSPSTLSASVGDRVIITCQASENINIWLSWYQQKPGKAPKLLIYQASKLASGVPSRFSGSGSGAEFTLTISSLQPDDFATYYCQNNYSYNRYGAPFGQGTKLTVLGGGGGSGGGGSGGGGSGGGGSEVQLVESGGGLVQPGGSLRLSCAASGFSFTTTDYMCWVRQAPGKGLEWVSCILAGDGSTYYANWAKGRFTISRDNSKNTLYLQMNSLRAEDTAVYYCAKSDPASSWSFALWGQGTLVTVSS
notes: VL and VH tied by name; also called Protein Nr; 857
Turning to B10, in assay [1], the dissociation rate constant (koff) was 0.00501 s⁻¹ and the kon is 927000 M⁻¹ s⁻¹. The association rate constant (kon) in assay [2] is > 1e+08 M⁻¹ s⁻¹.

B11: 375-max (scFv)
scFv: B10 scFv with A69T, E70Q, A154K, S181G, I202G, R204K, N206T, L211V, K230R
notes: VL and VH tied by name; also called Protein Nr; 873
As for B11, the koff in assay [1] worked out at 0.00655 s⁻¹; in assay [2], 0.242 s⁻¹. In addition, the kon in assay [1] amounted to 2.44e+06 M⁻¹ s⁻¹; in assay [2], 5.09e+07 M⁻¹ s⁻¹.

B12: 511max_min (scFv)
scFv: EIVMTQSPSTLSASVGDRVIITCQASQSINIWLSWYQQKPGKAPKLLIYRASTLASGVPSRFSGSGSGTEFTLTISSLQPDDFATYYCQANYAYSAGYGAAFGQGTKLTVLGGGGGSGGGGSGGGGSGGGGSEVQLVESGGGLVQPGGSLRLSCAASGFSLNTYYMNWVRQAPGKGLEWVSIIAPDDTTYYASWAKSRFTISRDNSKNTLYLQMNSLRAEDTAVYYCAKSGDTTAWGADIWGQGTLVTVSS
notes: also called Protein Nr; 905
B12: in assay [3], the Kd worked out at 1.48 nM, the koff was determined as 0.000754 s⁻¹ and the on-rate (kon) amounted to 511000 M⁻¹ s⁻¹.

B13: 511min_max (scFv)
scFv: B12 scFv with L33C, T69A, A155T, A156V, S181G, F199S, N205T, L210V, K229R
notes: also called Protein Nr; 904
For B13, in assay [3], the Kd was 0.278 nM, the off-rate constant (koff) amounted to 0.000102 s⁻¹ and the kon was determined as 366000 M⁻¹ s⁻¹.

B14: 435-min (scFv)
scFv: EIVMTQSPSTLSASVGDRVIITCQASQSIGSSLAWYQQKPGKAPKLLIYTAANLASGVPSRFSGSGSGAEFTLTISSLQPDDFATYYCQNFATSDTVTFGQGTKLTVLGGGGGSGGGGSGGGGSGGGGSEVQLVESGGGLVQPGGSLRLSCAASGFSLNTNYWMCWVRQAPGKGLEWVSCMYTGSYNRAYYASWAKGRFTISRDNSKNTLYLQMNSLRAEDTAVYYCAKGSNWYSDLWGQGTLVTVSS
notes: VL and VH tied by name; also called Protein Nr; 944
Turning to B14, in assay [2], the koff amounted to 0.0143 s⁻¹ and the on-rate constant (kon) was found to be 495000 M⁻¹ s⁻¹.
